Source: publication PMC6411835 (Nucleic Acids Research, 2018)

T1: surface-lysine methylated Zip2^499–704 (S. cerevisiae, UniProt P53061 499-704)
T1 sequence: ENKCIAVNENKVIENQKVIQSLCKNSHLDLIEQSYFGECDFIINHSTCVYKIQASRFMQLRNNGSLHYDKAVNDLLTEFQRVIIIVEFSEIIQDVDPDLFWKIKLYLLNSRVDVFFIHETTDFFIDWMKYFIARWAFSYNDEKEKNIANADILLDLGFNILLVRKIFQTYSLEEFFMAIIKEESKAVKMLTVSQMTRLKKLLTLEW

B1: surface-lysine methylated His6-Spo16 (natural protein)
chain: SEFFWDVQKIQEISNVEEHSVVKCVTVNTSRLISQLNEELQDEESGVNFIVTQLQLLINNVYEKIQKSPGVPAHRSLMINLNFTRLKFSIAYWDILLERSLDLINGPSKTGARYFITEVTPVDRSRYVENNQYFLAFKANQRLTRNSVDMDEFIDFEILIKQIIFDLFKKNGIPDQDFEAILSRFHNLESLVVAFNE
modifications: surface lysine residues dimethylated (dimethyllysine)
B2: Zip2^499–704 (domain or fragment)
chain: T1 sequence
B3: His6-Spo16 (natural protein)
chain: B1 chain

How the values were obtained:
[1] = biological target: T1, surface-lysine methylated Zip2^499–704; test: crystal structure
His6-Spo16 = biological target: B3; test: SEC-MALS
Zip2^499–704 = biological target: B2; test: co-purification after co-expression

Binder: B1
- binding result [1]: binds

Binder: B2
- stoichiometry N (His6-Spo16): 1

Binder: B3
- binding result (Zip2^499–704): binds
